Data as given in the supplement of paper PMC10567573.

B1: HSP90AB1 (parent)
chain: QVANSAFVERVRKRGFEVVYMTEP

Variants of: B1
Test: protein stability index of a GFP-peptide fusion (GPS, HEK-293T) (PSI 1-6); higher = more stable
Details: c terminus: a fixed tail appended
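Also: lentivirally expressed fusions sorted by FACS into six bins by GFP to DsRed ratio, PSI derived from sequencing read proportions per bin multiplied by bin number.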

| Variant | protein stability index |
| --- | --- |
| QVANSAFVERVRKRGFEVQYMTEP [V19Q] | 2.33 |
| QVANSAFVERVRKRGFEVIYMTEP [V19I] | 2.15 |
| QVANSAFVERVRKRGFEVCYMTEP [V19C] | 2.79 |
| QVANSAFVERVRKRGFEVGYMTEP [V19G] | 2.75 |
| QVANSAFVERVRKRGFEVKYMTEP [V19K] | 2.69 |
| QVANSAFVERVRKRGFEVPYMTEP [V19P] | 2.79 |
| QVANSAFVERVRKRGFEVMYMTEP [V19M] | 1.84 |
| QVANSAFVERVRKRGFEVEYMTEP [V19E] | 3.43 |
| QVANSAFVERVRKRGFEVFYMTEP [V19F] | 1.53 |
| QVANSAFVERVRKRGFEVLYMTEP [V19L] | 2.09 |
| QVANSAFVERVRKRGFEVAYMTEP [V19A] | 2.83 |
| QVANSAFVERVRKRGFEVNYMTEP [V19N] | 3.15 |
| QVANSAFVERVRNRGFEVVYMTEP [K13N] | 2.24 |
| QVANSAFVERVRQRGFEVVYMTEP [K13Q] | 2.2 |
| QVANSAFVERVRDRGFEVVYMTEP [K13D] | 2.67 |
| QVANSAFVERVRPRGFEVVYMTEP [K13P] | 2.63 |
| QVANSAFVERVRGRGFEVVYMTEP [K13G] | 1.34 |
| QVANSAFVERVRFRGFEVVYMTEP [K13F] | 1.58 |
| QVANSAFVERVRVRGFEVVYMTEP [K13V] | 1.54 |
| QVANSAFVERVRARGFEVVYMTEP [K13A] | 2.42 |
| QVANSAFVERVRMRGFEVVYMTEP [K13M] | 1.53 |
| QVANSAFVERVRHRGFEVVYMTEP [K13H] | 1.95 |
| QVANSAFVERVRYRGFEVVYMTEP [K13Y] | 1.75 |
| QVANSAFVERVRWRGFEVVYMTEP [K13W] | 2.48 |

| Variant | protein stability index |
| --- | --- |
| QVANSAFVERVRLRGFEVVYMTEP [K13L] | 2.49 |
| QVANSAFVERVRCRGFEVVYMTEP [K13C] | 1.61 |
| QVANSAFVERVRSRGFEVVYMTEP [K13S] | 2.83 |
| QVANSAFVERVRRRGFEVVYMTEP [K13R] | 2.43 |
| QVANSAFVERVRTRGFEVVYMTEP [K13T] | 2.35 |
| QVANSAFVERVRIRGFEVVYMTEP [K13I] | 1.51 |
| QVANSAFVERVSKRGFEVVYMTEP [R12S] | 2.87 |
| QVANSAFVERVKKRGFEVVYMTEP [R12K] | 3.12 |
| QVANSAFVERVWKRGFEVVYMTEP [R12W] | 1.6 |
| QVANSAFVERVMKRGFEVVYMTEP [R12M] | 2.01 |
| QVANSAFVERVNKRGFEVVYMTEP [R12N] | 2.63 |
| QVANSAFVERVEKRGFEVVYMTEP [R12E] | 3.16 |
| QVANSAFVERVFKRGFEVVYMTEP [R12F] | 2.13 |
| QVANSAFVERVAKRGFEVVYMTEP [R12A] | 2.18 |
| QVANSAFVERVCKRGFEVVYMTEP [R12C] | 1.98 |
| QVANSAFVERVVKRGFEVVYMTEP [R12V] | 2.16 |
| QVANSAFVERVTKRGFEVVYMTEP [R12T] | 2.09 |
| QVANSAFVERVPKRGFEVVYMTEP [R12P] | 2.74 |
| QVANSAFVERVDKRGFEVVYMTEP [R12D] | 3.5 |
| QVANSAFVERVGKRGFEVVYMTEP [R12G] | 2.59 |
| QVANSAFVERVQKRGFEVVYMTEP [R12Q] | 2.35 |
| QVANSAFVERVHKRGFEVVYMTEP [R12H] | 2.53 |
| QVANSAFVERVLKRGFEVVYMTEP [R12L] | 2.1 |
| QVANSAFQERVRKRGFEVVYMTEP [V8Q] | 2.2 |

| Variant | protein stability index |
| --- | --- |
| QVANSAFYERVRKRGFEVVYMTEP [V8Y] | 2.7 |
| QVANSAFTERVRKRGFEVVYMTEP [V8T] | 2.52 |
| QVANSAFWERVRKRGFEVVYMTEP [V8W] | 1.47 |
| QVANSAFRERVRKRGFEVVYMTEP [V8R] | 2.07 |
| QVANSAFSERVRKRGFEVVYMTEP [V8S] | 2.54 |
| QVANSAFVERSRKRGFEVVYMTEP [V11S] | 2.61 |
| QVANSAFVERRRKRGFEVVYMTEP [V11R] | 2.43 |
| QVANSAFVERQRKRGFEVVYMTEP [V11Q] | 3.2 |
| QVANSAFVERHRKRGFEVVYMTEP [V11H] | 2.73 |
| QVANSAFVERTRKRGFEVVYMTEP [V11T] | 2.83 |
| QVANSAFVERARKRGFEVVYMTEP [V11A] | 2.62 |
| QVANSAFVERMRKRGFEVVYMTEP [V11M] | 2.11 |
| QVANSAFVERKRKRGFEVVYMTEP [V11K] | 1.85 |
| QVANSAFVERLRKRGFEVVYMTEP [V11L] | 1.69 |
| QVANSAFVERYRKRGFEVVYMTEP [V11Y] | 2.17 |
| QVANSAFVERWRKRGFEVVYMTEP [V11W] | 1.34 |
| QVANSAFVERERKRGFEVVYMTEP [V11E] | 3.58 |
| QVANSAFVERFRKRGFEVVYMTEP [V11F] | 2.09 |
| QVANSAFVERGRKRGFEVVYMTEP [V11G] | 2.56 |
| QVANSAFVERIRKRGFEVVYMTEP [V11I] | 1.79 |
| QVANSAFVERPRKRGFEVVYMTEP [V11P] | 2.48 |
| QVANSAFVERVRKRGFIVVYMTEP [E17I] | 2.75 |
| QVANSAFVERVRKRGFCVVYMTEP [E17C] | 2.44 |
| QVANSAFVERVRKRGFNVVYMTEP [E17N] | 2.32 |

| Variant | protein stability index |
| --- | --- |
| QVANSAFVERVRKRGFVVVYMTEP [E17V] | 1.89 |
| QVANSAFVERVRKRGFTVVYMTEP [E17T] | 1.87 |
| QVANSAFVERVRKRGFKVVYMTEP [E17K] | 2.02 |
| QVANSAFVERVRKRGFSVVYMTEP [E17S] | 2.49 |
| QVANSAFVERVRKRGFGVVYMTEP [E17G] | 2.88 |
| QVANSAFVERVRKRGFMVVYMTEP [E17M] | 2.15 |
| QVANSAFVERVRKRGFRVVYMTEP [E17R] | 2.19 |
| QVANSAFVERVRKRGFFVVYMTEP [E17F] | 4.31 |
| QVANSAFVERVRKRGFPVVYMTEP [E17P] | 2.02 |
| QVANSAFVERVRKRGFHVVYMTEP [E17H] | 1.76 |
| QVANSAFVERVRKRGFAVVYMTEP [E17A] | 1.26 |
| QVANSAFVERVRKRGFQVVYMTEP [E17Q] | 1.51 |
| QVANSAFVERVRKRGFYVVYMTEP [E17Y] | 2.6 |
| QVANSAFVERVRKRGFDVVYMTEP [E17D] | 2 |
| QVANSAFVEDVRKRGFEVVYMTEP [R10D] | 2.58 |
| QVANSAFVETVRKRGFEVVYMTEP [R10T] | 2.29 |
| QVANSAFVEVVRKRGFEVVYMTEP [R10V] | 1.76 |
| QVANSAFVECVRKRGFEVVYMTEP [R10C] | 2.05 |
| QVANSAFVEYVRKRGFEVVYMTEP [R10Y] | 1.58 |
| QVANSAFVEGVRKRGFEVVYMTEP [R10G] | 2.17 |
| QVANSAFVEAVRKRGFEVVYMTEP [R10A] | 2.18 |
| QVANSAFVEPVRKRGFEVVYMTEP [R10P] | 2.57 |
